Where “and” joins values, the source holds several entries; their conditions need not be identical. Identical values can stand only once. Like-named read-outs stand apart in the source and are kept apart here.
Tests used:
[1] = target: WAVE1ΔN, minimal Arp2/3-activating fragment of human WAVE1 (PVCA) (human); assay: FRET or BRET
[2] = target: WAVE1ΔN, minimal Arp2/3-activating fragment of human WAVE1 (PVCA) (human); assay: FRET or BRET; remark: listed apart in the source
[3] = target: Native bovine (β, γ)-actin (bovine) (UniProt P60712); assay: single-filament TIRF microscopy
[4] = target: Native bovine (β, γ)-actin (bovine) (UniProt P60712); assay: single-molecule / single-filament TIRF microscopy
[5] = target: Native bovine (β, γ)-actin (bovine) (UniProt P60712); assay: TIRF microscopy, KD calculated from rate constants

Row | fold change of koff against wild-type CP [3] | fold change of kon against wild-type CP [4] | fold reduction of affinity against wild-type CP [5] | Substance | percent quenching of NPF donor fluorescence [1] | percent quenching of NPF donor fluorescence [2]
1 |  |  |  | Atto540Q-quencher labeled Acanthamoeba castellani actin monomers (natural protein) | 59% and 69% | 14%
2 | 3 fold | 3 fold | 10 fold | Capping protein lacking the last 23 amino acids of the β subunit (CPαβΔ23) (from UniProt P47753;P47757-2) (complex) |  | 
